Measured values taken from the supplement of paper PMC7125110.
± gives the standard error. Variants at the floor of the assay were thinned out.

B1: glmS ribozyme (parent)
chain: AUAAAAGCGCCAGAACUACAGAAAUGUAGUUGACGAGGAGGAGGUUUAUCGAAUUUUCGGCGGAUGCCUCCAAA

Variants of: B1
Assay: self-cleavage kobs at 10000 uM GlcN6P; higher = faster cleavage; RNA array
Conditions: with glucosamine-6-phosphate
Method in brief: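 Tracking of barcoded ribozyme variants used a hybridised Cy3 probe at 37 °C, after in situ transcription by E. coli RNA polymerase on sequenced MiSeq chips. The flowed solution held 40 μM to 10 mM glucosamine-6-phosphate in HEPES/KCl/Mg(OAc)2 buffer, and imaging ran over ~14 h. kobs was taken from exponential decay fits of normalised per-tile medians, and kcat and KM from weighted Michaelis–Menten fits.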

Row | Variant | self-cleavage kobs at 10000 uM GlcN6P
1 | C10U A36C U69G | 0.000116 ± 2.9e-05 s⁻¹
2 | C11A A42U G51U G60C | < 1e-05 s⁻¹
3 | A64U G66C | 4.03e-05 ± 1.2e-05 s⁻¹
4 | C8A A39U U47G | < 1e-05 s⁻¹
5 | G29C U46G A64U | < 1e-05 s⁻¹
6 | A14U C16G G32A U56G | 0.000337 ± 5e-05 s⁻¹
7 | A12C G13U U47A U56A | 4.59e-05 ± 1.6e-05 s⁻¹
8 | A6G A52U G60A G66A | < 1e-05 s⁻¹
9 | A6U A39C G43U G51U C70G C71A | < 1e-05 s⁻¹
10 | A33U G62U C71A | < 1e-05 s⁻¹
11 | C11G A33G G40U C70U | < 1e-05 s⁻¹
12 | A14U G37C G59C C67U | < 1e-05 s⁻¹
13 | C11A A42G C67U | 4.66e-05 ± 1.8e-05 s⁻¹
14 | C16G U47A U56A U65G | 0.000338 ± 9.1e-05 s⁻¹
15 | G29C G41C A42U | < 1e-05 s⁻¹
16 | A12U A33C C34U C70G | < 1e-05 s⁻¹
17 | A33U U45A U55C C71U | < 1e-05 s⁻¹
18 | U45G U46C U54G | 0.00762 ± 0.0023 s⁻¹
19 | G13A C16U G32U | 0.000302 ± 4.9e-05 s⁻¹
20 | G32U G43U A53G G63U A64G G66U | < 1e-05 s⁻¹
21 | C8U A42U C50U | < 1e-05 s⁻¹
22 | C10U G13C G63U | < 1e-05 s⁻¹
23 | G32C A36U G37A C61A C67U | 9.54e-05 ± 1.4e-05 s⁻¹
24 | A12G C16A G29U | 0.000458 ± 9.3e-05 s⁻¹
25 | C16G G32U C70U | 0.000712 ± 0.00013 s⁻¹
26 | A33U G41U U49A A52U U69A | < 1e-05 s⁻¹

Row | Variant | self-cleavage kobs at 10000 uM GlcN6P
27 | C16U G40C A53C C71U | 0.000561 ± 0.00013 s⁻¹
28 | C8G A14C C68G | < 1e-05 s⁻¹
29 | G7A C34U A42C | < 1e-05 s⁻¹
30 | U30G A33G C71G | < 1e-05 s⁻¹
31 | G9C C34U | < 1e-05 s⁻¹
32 | A12G G44U C58G | < 1e-05 s⁻¹
33 | G32U A39G U69A | 0.000121 ± 3.2e-05 s⁻¹
34 | A6U G29U G62C | < 1e-05 s⁻¹
35 | U30G U31G U46C U65G | 5.94e-05 ± 2.6e-05 s⁻¹
36 | C8U U31C A39U G66C | < 1e-05 s⁻¹
37 | A39G U54A G62U G66A | < 1e-05 s⁻¹
38 | C10U G13C G51A A53U A64G G66A | < 1e-05 s⁻¹
39 | G38U U56C | < 1e-05 s⁻¹
40 | A39U U55C U65C | 0.00435 ± 0.00052 s⁻¹
41 | A6U U31C A36C | < 1e-05 s⁻¹
42 | G7U C8G C16A | < 1e-05 s⁻¹
43 | G13C A15U C58G | 0.000104 ± 1.7e-05 s⁻¹
44 | G32U U57G | 5.4e-05 ± 1.4e-05 s⁻¹
45 | G51C U55C | < 1e-05 s⁻¹
46 | U49A C50G G51A C61A G62U | < 1e-05 s⁻¹
47 | U30G U55G C70G | 4.53e-05 ± 1.9e-05 s⁻¹
48 | G51U A53U G60U C70U | < 1e-05 s⁻¹
49 | C8U A14U A36U | < 1e-05 s⁻¹
50 | U30G U45A C71G | 0.000315 ± 5.9e-05 s⁻¹
51 | C8U U30G A39G G43U | < 1e-05 s⁻¹
52 | A12U G29A C70A | 9.81e-05 ± 2.5e-05 s⁻¹
